Measurements taken from patent US8987424B2, “CA6 antigen-specific cytotoxic conjugate and methods of using the same” (ImmunoGen, Inc., priority 2003, dated 2015).

Experiments:
Assay in all cases: Flow cytometry binding assay
Design in all cases: species or system human
HPAC cells = test system: HPAC cells
Method: (§1) Flow cytometric analysis was used to localize the DS6 epitope, CA6, to the cell surface. Human cell lines were obtained from the American Type Culture Collection (ATCC) with the exception of OVCAR5 (Kearse et al., Int. J. Cancer 88(6):866-872 (2000)), OVCAR8 and IGROV1 cells (M. Seiden, Massachusetts General Hospital). All cells were grown in RPMI 1640 supplemented with 4 mM L-glutamine, 50 U/ml penicillin, 50 μg/ml streptomycin (Cambrex Bio Science, Rockland, Me.) and 10% v/v fetal bovine serum (Atlas Biologicals, Fort Collins, Colo.), referred hereafter as culture media. Cells were maintained in a 37° C., 5% CO2 humidified incubator.
(§2) Cells ([…]) were incubated, on ice for 3-4 h, with serially diluted concentrations of the DS6 antibody prepared in FACS buffer (2% goat serum, RPMI) into 96-well plates. The cells were spun down in a table top centrifuge at 1500 rpm for 5 min at 4° C. After removing the media, the wells were then refilled with 150 μl of FACS buffer. The wash step was then repeated. FITC-labeled goat anti-mouse IgG (Jackson Immunoresearch) was diluted 1:100 to FACS buffer and incubated with the cells for 1 h on ice. The plate was covered in foil to prevent photobleaching of the signal. After two washes, the cells were fixed with 1% formaldehyde and analyzed on a flow cytometer.

HPAF-II cells = test system: HPAF-II cells
Method: as §1, §2

BT-483 cells = test system: BT-483 cells
Method: as §1, §2

SK-OV-3 cells = test system: SK-OV-3 cells
Method: as §1, §2

OVCAR5 cells = test system: OVCAR5 cells
Method: as §1, §2

BxPC-3 cells = test system: BxPC-3 cells
Method: as §1, §2

OVCAR-3 cells = conditions: OVCAR3
Method: as §1, §2

T-47D cells = test system: T-47D cells
Method: as §1, §2

MDA-MB-157 cells = test system: MDA-MB-157 cells
Method: as §1, §2

CAMA-1 cells = test system: CAMA-1 cells
Method: as §1, §2

ZR-75-1 cells = test system: ZR-75-1 cells
Method: as §1, §2

MCF-7 cells = test system: MCF-7 cells
Method: as §1, §2

T98G cells = test system: T98G cells
Method: as §1, §2

MDA-MB-468 cells = test system: MDA-MB-468 cells
Method: as §1, §2

Hs766T cells = test system: Hs766T cells
Method: as §1, §2

PC-3 cells = test system: PC-3 cells
Method: as §1, §2

BT-549 cells = test system: BT-549 cells
Method: as §1, §2

MDA-MB-231 cells = test system: MDA-MB-231 cells
Method: as §1, §2

KLE cells = test system: KLE cells
Method: as §1, §2

SW1990 cells = test system: SW1990 cells
Method: as §1, §2

Caov-4 cells = test system: Caov-4 cells
Method: as §1, §2

SU.86.86 cells = test system: SU.86.86 cells
Method: as §1, §2

Colo205 cells = conditions: Colo205, antigen negative cell line
Method: as §1, §2

WISH cells = test system: WISH cells
Method: as §1, §2

BT-20 cells = test system: BT-20 cells
Method: as §1, §2

TOV-21G cells = test system: TOV-21G cells
Method: as §1, §2

B1: DS6: murine anti-CA6 monoclonal antibody DS6 (ATCC deposit number PTA-4449) (antibody, V domains shown)
VH: QAYLQQSGAELVRSGASVKMSCKASGYTFTSYNMHWVKQTPGQGLEWIGYIYPGNGATNYNQKFKGKATLTADPSSSTAYMQISSLTSEDSAVYFCARGDSVPFAYWGQGTLVTVSA
VL: QIVLTQSPAIMSASPGEKVTITCSAHSSVSFMHWFQQKPGTSPKLWIYSTSSLASGVPARFGGSGSGTSYSLTISRMEAEDAATYYCQQRSSFPLTFGAGTKLELKR
- MMF (average maximum relative mean fluorescence) (HPAC cells): 2228.00
- MMF (average maximum relative mean fluorescence) (HPAF-II cells): 266.50
- MMF (average maximum relative mean fluorescence) (BT-483 cells): 1911.00
- antigen specific binding (SK-OV-3 cells; SK-OV-3, antigen negative cell line): no antigen specific binding
- MMF (maximum mean relative fluorescence) (SK-OV-3 cells; SKOV3): 17.53
- MMF (average maximum relative mean fluorescence) (OVCAR5 cells): 97.10
- MMF (average maximum relative mean fluorescence) (BxPC-3 cells): 79.99
- MMF (maximum mean relative fluorescence) (OVCAR-3 cells): 21.19
- MMF (average maximum relative mean fluorescence) (T-47D cells): 559.58
- MMF (average maximum relative mean fluorescence) (MDA-MB-157 cells): 8.635
- MMF (average maximum relative mean fluorescence) (CAMA-1 cells): 12.46
- MMF (average maximum relative mean fluorescence) (ZR-75-1 cells): 811.67
- MMF (average maximum relative mean fluorescence) (MCF-7 cells): 81.41
- MMF (average maximum relative mean fluorescence) (T98G cells): 35.94
- Kd (T98G cells; read-out: Apparent Kd): 0.178 nM
- MMF (average maximum relative mean fluorescence) (MDA-MB-468 cells): 71.58
- MMF (average maximum relative mean fluorescence) (Hs766T cells): 182.90
- MMF (average maximum relative mean fluorescence) (PC-3 cells): 24.81
- MMF (average maximum relative mean fluorescence) (BT-549 cells): 71.39
- MMF (average maximum relative mean fluorescence) (MDA-MB-231 cells): 31.85
- MMF (maximum mean relative fluorescence) (KLE cells): 27.48
- MMF (average maximum relative mean fluorescence) (SW1990 cells): 36.17
- MMF (average maximum relative mean fluorescence) (Caov-4 cells): 149.00
- MMF (average maximum relative mean fluorescence) (SU.86.86 cells): 36.86
- antigen specific binding (Colo205 cells): no antigen specific binding
- MMF (average maximum relative mean fluorescence) (WISH cells): 1133.55
- MMF (average maximum relative mean fluorescence) (BT-20 cells): 232.20
- MMF (average maximum relative mean fluorescence) (TOV-21G cells): 87.79
